One block for each substance: values may come before it.
Legend:
[1] = biological target: YidC cysteine mutant labelled with Cy3 at position 454 (E. coli) (UniProt P25714); assay: other fluorescence titration; 60 nM Cy3-labelled YidC in 20 mM Hepes/KOH pH 7.5, 100 mM KCl, 10 mM MgOAc2, 5% glycerol, 0.1% DDM mixed 1:1 with 0.6 nM to 19.2 µM 70S ribosomes; 10 min at 20°C; fluorescence intensity on a Monolith NT.115; four repeats
[2] = biological target: xFOc (subunit c of the ATP synthase with cysteines C21 and C65), in vitro translated (E. coli) (UniProt P68699); assay: cross-linking; xFOc translated in vitro and inserted into proteoliposomes (large scale); mild oxidising conditions (lipids, atmospheric oxygen), no CuPh; non-reducing SDS-PAGE, phosphor imaging; c10-ring with HTL, SecYEG or without YidC, not with YidC alone
[3] = biological target: xFOc (subunit c of the ATP synthase with cysteines C21 and C65), expressed in E. coli C43 membranes (E. coli) (UniProt P68699); assay: cross-linking; E. coli C43 membranes expressing xFOc oxidised with copper-1,10-phenanthroline (CuPh), with or without DTT; SDS-PAGE, western blotting with FOc antibody

Kd [1]: 161 nM
Substance: 70S ribosomes (complex)

stoichiometry N [2]: 10
Substance: xFOc (subunit c of the ATP synthase with cysteines C21 and C65), in vitro translated (from UniProt P68699 1-79) (natural protein)

stoichiometry N [3]: 10
Substance: xFOc (subunit c of the ATP synthase with cysteines C21 and C65), expressed in E. coli C43 membranes (from UniProt P68699 1-79) (natural protein)

From article PMC5095914
